Measured values: patent US20240376163A1 (published 2024)
No end group written: not given here. *: point of attachment. Biotin = O=C1N[C@H]2[C@H](CS[C@H]2CCCCC(=O)*)N1

Molecular target: His-tagged CNA
Test: SPR

Kd: 512 nM
Binder: Biotin-AAAMAGFPPEITVTPPTP [CABIN1-L-1]
